Experimental data published in the supplement of paper PMC5998384.

Columns and labels:
[1] = system: HeLa Kyoto; experiment: solubility in G1/S (NP-40 vs SDS abundance) (log2 ratio); higher = more soluble; details: cell cycle stage: G1/S
[2] = system: HeLa Kyoto; experiment: solubility change mitosis vs G1/S (difference of NP-40 vs SDS log2 ratios) (log2 ratio difference); higher = more soluble in mitosis
[3] = system: HeLa Kyoto; experiment: thermal stability score vs G1/S (z-score of summed log2 fold changes over temperatures); higher = more thermally stable than in G1/S
[4] = cell cycle stage: early G1 (4.5 h after nocodazole release)
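Throughout, for solubility change mitosis vs G1/S (difference of NP-40 vs SDS log2 ratios): synchronized HeLa Kyoto cells (double thymidine block for G1/S, nocodazole release for mitosis), protein amounts in NP-40 versus SDS lysates quantified by mass spectrometry, three biological replicates.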
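Throughout, for solubility in G1/S (NP-40 vs SDS abundance): HeLa Kyoto cells arrested at G1/S by double thymidine block, proteins quantified by TMT10plex mass spectrometry in mild NP-40 versus SDS extracts, three biological replicates.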
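Throughout, for thermal stability score vs G1/S (z-score of summed log2 fold changes over temperatures): synchronized HeLa Kyoto cells, proteins quantified by TMT10plex mass spectrometry, three biological replicates, mitosis taken 0.5 h after nocodazole release, G1/S directly after double thymidine block.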

For “MQRAAALVRRGCGPRTPSSWGRSQSSAAAEASAVLKVRPERSRRERILTLESMNPQVKAVEYAVRGPIVLKAGEIELELQRGIKKPFTEVIRANIGDAQAMGQQPITFLRQVMALCTYPNLLDSPSFPEDAKKRARRILQACGGNSLGSYSASQGVNCIREDVAAYITRRDGGVPADPDNIYLTTGASDGISTILKILVSGGGKSRTGVMIPIPQYPLYSAVISELDAIQVNYYLDEENCWALNVNELRRAVQEAKDHCDPKVLCIINPGNPTGQVQSRKCIEDVIHFAWEEKLFLLADEVYQDNVYSPDCRFHSFKKVLYEMGPEYSSNVELASFHSTSKGYMGECGYRGGYMEVINLHPEIKGQLVKLLSVRLCPPVSGQAAMDIVVNPPVAGEESFEQFSREKESVLGNLAKKAKLTEDLFNQVPGIHCNPLQGAMYAFPRIFIPAKAVEAAQAHQMAPDMFYCMKLLEETGICVVPGSGFGQREGTYHFRMTILPPVEKLKTVLQKVKDFHINFLEKYA [GPT2]”, the “solubility in G1/S (log2)” value [1] was 0.0799, the “solubility change mitosis (log2)” value [2] was 0.017 and the thermal stability score [3, 4] was -0.2. It also gave a thermal stability score ([3]; cell cycle stage: mitosis) of -0.215.
For “MQSKVTGNMPTQSLLMYMDGPEVIGSSLGSPMEMEDALSMKGTAVVPFRATQEKNVIQIEGYMPLDCMFCSQTFTHSEDLNKHVLMQHRPTLCEPAVLRVEAEYLSPLDKSQVRTEPPKEKNCKENEFSCEVCGQTFRVAFDVEIHMRTHKDSFTYGCNMCGRRFKEPWFLKNHMRTHNGKSGARSKLQQGLESSPATINEVVQVHAAESISSPYKICMVCGFLFPNKESLIEHRKVHTKKTAFGTSSAQTDSPQGGMPSSREDFLQLFNLRPKSHPETGKKPVRCIPQLDPFTTFQAWQLATKGKVAICQEVKESGQEGSTDNDDSSSEKELGETNKGSCAGLSQEKEKCKHSHGEAPSVDADPKLPSSKEKPTHCSECGKAFRTYHQLVLHSRVHKKDRRAGAESPTMSVDGRQPGTCSPDLAAPLDENGAVDRGEGGSEDGSEDGLPEGIHLDKNDDGGKIKHLTSSRECSYCGKFFRSNYYLNIHLRTHTGEKPYKCEFCEYAAAQKTSLRYHLERHHKEKQTDVAAEVKNDGKNQDTEDALLTADSAQTKNLKRFFDGAKDVTGSPPAKQLKEMPSVFQNVLGSAVLSPAHKDTQDFHKNAADDSADKVNKNPTPAYLDLLKKRSAVETQANNLICRTKADVTPPPDGSTTHNLEVSPKEKQTETAADCRYRPSVDCHEKPLNLSVGALHNCPAISLSKSLIPSITCPFCTFKTFYPEVLMMHQRLEHKYNPDVHKNCRNKSLLRSRRTGCPPALLGKDVPPLSSFCKPKPKSAFPAQSKSLPSAKGKQSPPGPGKAPLTSGIDSSTLAPSNLKSHRPQQNVGVQGAATRQQQSEMFPKTSVSPAPDKTKRPETKLKPLPVAPSQPTLGSSNINGSIDYPAKNDSPWAPPGRDYFCNRSASNTAAEFGEPLPKRLKSSVVALDVDQPGANYRRGYDLPKYHMVRGITSLLPQDCVYPSQALPPKPRFLSSSEVDSPNVLTVQKPYGGSGPLYTCVPAGSPASSSTLEGKRPVSYQHLSNSMAQKRNYENFIGNAHYRPNDKKT [ZNF217]”, the “solubility in G1/S (log2)” value [1] was -0.201, the “solubility change mitosis (log2)” value [2] was 0.0502 and the thermal stability score [3, 4] was -1.13. It also gave a thermal stability score ([3]; cell cycle stage: mitosis) of -0.808.
“MSDILRELLCVSEKAANIARACRQQEALFQLLIEEKKEGEKNKKFAVDFKTLADVLVQEVIKQNMENKFPGLEKNIFGEESNEFTNDWGEKITLRLCSTEEETAELLSKVLNGNKVASEALARVVHQDVAFTDPTLDSTEINVPQDILGIWVDPIDSTYQYIKGSADIKSNQGIFPCGLQCVTILIGVYDIQTGVPLMGVINQPFVSRDPNTLRWKGQCYWGLSYMGTNMHSLQLTISRRNGSETHTGNTGSEAAFSPSFSAVISTSEKETIKAALSRVCGDRIFGAAGAGYKSLCVVQGLVDIYIFSEDTTFKWDSCAAHAILRAMGGGIVDLKECLERNPETGLDLPQLVYHVENEGAAGVDRWANKGGLIAYRSRKRLETFLSLLVQNLAPAETHT [INPP1]” was tested, and the “solubility in G1/S (log2)” value [1] was 0.0309, the “solubility change mitosis (log2)” value [2] was -0.114 and the thermal stability score [3, 4] was 0.000408. For the same sequence, the thermal stability score ([3]; cell cycle stage: mitosis) was -0.083.
For “MSFNLQSSKKLFIFLGKSLFSLLEAMIFALLPKPRKNVAGEIVLITGAGSGLGRLLALQFARLGSVLVLWDINKEGNEETCKMAREAGATRVHAYTCDCSQKEGVYRVADQVKKEVGDVSILINNAGIVTGKKFLDCPDELMEKSFDVNFKAHLWTYKAFLPAMIANDHGHLVCISSSAGLSGVNGLADYCASKFAAFGFAESVFVETFVQKQKGIKTTIVCPFFIKTGMFEGCTTGCPSLLPILEPKYAVEKIVEAILQEKMYLYMPKLLYFMMFLKSFLPLKTGLLIADYLGILHAMDGFVDQKKKL [SDR16C5]”, the “solubility in G1/S (log2)” value [1] was -0.478, the “solubility change mitosis (log2)” value [2] was -0.0428 and the thermal stability score [3, 4] was 0.864. For the same sequence, the thermal stability score ([3]; cell cycle stage: mitosis) was -0.987.
